Data: paper PMC6016464, “Folding and binding pathways of BH3-only proteins are encoded within their intrinsically disordered sequence, not templated by partner proteins” (The Journal of Biological Chemistry, 2018)
Where no end group is shown, it is not given here. The star is where a group is joined. TAMRA = 5-carboxytetramethylrhodamine, CN(C)c1ccc2c(-c3ccc(C(=O)*)cc3C(=O)[O-])c3ccc(=[N+](C)C)cc-3oc2c1

B1: PUMA Y152A peptide (on the M144A wild type), TAMRA-labelled (peptide)
chain: {TAMRA}-RVEEEEWAREIGAQLRRAADDLNAQAERRRQEEQH
B2: PUMA R143A peptide (on the M144A wild type), TAMRA-labelled (peptide)
chain: {TAMRA}-RVEEEEWAREIGAQLRAAADDLNAQYERRRQEEQH
B3: PUMA R154A peptide (on the M144A wild type), TAMRA-labelled (peptide)
chain: {TAMRA}-RVEEEEWAREIGAQLRRAADDLNAQYEARRQEEQH
B4: PUMA I137A peptide (on the M144A wild type), TAMRA-labelled (peptide)
chain: {TAMRA}-RVEEEEWAREAGAQLRRAADDLNAQYERRRQEEQH
B5: PUMA D147A peptide (on the M144A wild type), TAMRA-labelled (peptide)
chain: {TAMRA}-RVEEEEWAREIGAQLRRAADALNAQYERRRQEEQH
B6: PUMA A139G peptide (on the M144A wild type), TAMRA-labelled (peptide)
chain: {TAMRA}-RVEEEEWAREIGGQLRRAADDLNAQYERRRQEEQH
B7: PUMA R154G peptide (on the M144A wild type), TAMRA-labelled (peptide)
chain: {TAMRA}-RVEEEEWAREIGAQLRRAADDLNAQYEGRRQEEQH
B8: PUMA W133F peptide (on the M144A wild type), TAMRA-labelled (peptide)
chain: {TAMRA}-RVEEEEFAREIGAQLRRAADDLNAQYERRRQEEQH
B9: PUMA E132G peptide (on the M144A wild type), TAMRA-labelled (peptide)
chain: {TAMRA}-RVEEEGWAREIGAQLRRAADDLNAQYERRRQEEQH
B10: PUMA E136A peptide (on the M144A wild type), TAMRA-labelled (peptide)
chain: {TAMRA}-RVEEEEWARAIGAQLRRAADDLNAQYERRRQEEQH
B11: PUMA D147G peptide (on the M144A wild type), TAMRA-labelled (peptide)
chain: {TAMRA}-RVEEEEWAREIGAQLRRAADGLNAQYERRRQEEQH
B12: PUMA E132A peptide (on the M144A wild type), TAMRA-labelled (peptide)
chain: {TAMRA}-RVEEEAWAREIGAQLRRAADDLNAQYERRRQEEQH
B13: PUMA R143G peptide (on the M144A wild type), TAMRA-labelled (peptide)
chain: {TAMRA}-RVEEEEWAREIGAQLRGAADDLNAQYERRRQEEQH
B14: BID peptide (mouse, residues 76-110), TAMRA-labelled (peptide)
chain: {TAMRA}-SESQEEIIHNIARHLAQIGDEMDHNIQPTLVRQLA
notes: BID, mouse, residues 76-110, UniProt P70444; also called WT; source: synthetic peptide (Biomatik)
B15: BID I93A peptide, TAMRA-labelled (peptide, UniProt P70444 76-110, looked up)
chain: {TAMRA}-SESQEEIIHNIARHLAQAGDEMDHNIQPTLVRQLA
notes: BID, mouse, residues 76-110, UniProt P70444; source: synthetic peptide (Biomatik)
B16: BID E96G peptide, TAMRA-labelled (peptide, UniProt P70444 76-110, looked up)
chain: {TAMRA}-SESQEEIIHNIARHLAQIGDGMDHNIQPTLVRQLA
notes: as for B15
B17: BID R88A peptide, TAMRA-labelled (peptide, UniProt P70444 76-110, looked up)
chain: {TAMRA}-SESQEEIIHNIAAHLAQIGDEMDHNIQPTLVRQLA
notes: as for B15
B18: BID I86A-M97A peptide, TAMRA-labelled (peptide, UniProt P70444 76-110, looked up)
chain: {TAMRA}-SESQEEIIHNAARHLAQIGDEADHNIQPTLVRQLA
notes: as for B15
B19: BID R88G peptide, TAMRA-labelled (peptide, UniProt P70444 76-110, looked up)
chain: {TAMRA}-SESQEEIIHNIAGHLAQIGDEMDHNIQPTLVRQLA
notes: as for B15
B20: BID I86A peptide, TAMRA-labelled (peptide, UniProt P70444 76-110, looked up)
chain: {TAMRA}-SESQEEIIHNAARHLAQIGDEMDHNIQPTLVRQLA
notes: as for B15
B21: BID E96A peptide, TAMRA-labelled (peptide, UniProt P70444 76-110, looked up)
chain: {TAMRA}-SESQEEIIHNIARHLAQIGDAMDHNIQPTLVRQLA
notes: as for B15
B22: BID M97A peptide, TAMRA-labelled (peptide, UniProt P70444 76-110, looked up)
chain: {TAMRA}-SESQEEIIHNIARHLAQIGDEADHNIQPTLVRQLA
notes: as for B15
B23: PUMA peptide (mouse, residues 127-161, M144A, used as wild type), TAMRA-labelled (peptide)
chain: {TAMRA}-RVEEEEWAREIGAQLRRAADDLNAQYERRRQEEQH
B24: PUMA E136G peptide (on the M144A wild type), TAMRA-labelled (peptide)
chain: {TAMRA}-RVEEEEWARGIGAQLRRAADDLNAQYERRRQEEQH
B25: PUMA A150G peptide (on the M144A wild type), TAMRA-labelled (peptide)
chain: {TAMRA}-RVEEEEWAREIGAQLRRAADDLNGQYERRRQEEQH
B26: BID I82A peptide, TAMRA-labelled (peptide, UniProt P70444 76-110, looked up)
chain: {TAMRA}-SESQEEAIHNIARHLAQIGDEMDHNIQPTLVRQLA
notes: as for B15
B27: BID H99G peptide, TAMRA-labelled (peptide, UniProt P70444 76-110, looked up)
chain: {TAMRA}-SESQEEIIHNIARHLAQIGDEMDGNIQPTLVRQLA
notes: as for B15
B28: BID H99A peptide, TAMRA-labelled (peptide, UniProt P70444 76-110, looked up)
chain: {TAMRA}-SESQEEIIHNIARHLAQIGDEMDANIQPTLVRQLA
notes: as for B15

target: T1, A1 protein (mouse, residues 1-152, P104K C113S, used as wild type) (mouse); test: stopped-flow fluorescence kinetics + other: fluorescence dissociation kinetics with competitor; Kd calculated as the ratio koff/kon of the kinetic rate constants; 25 °C; 50 mM sodium phosphate, 0.05% (v/v) Tween 20, pH 7.0; details: not given
T1 sequence (Q07440 1-152 with P104K C113S, looked up): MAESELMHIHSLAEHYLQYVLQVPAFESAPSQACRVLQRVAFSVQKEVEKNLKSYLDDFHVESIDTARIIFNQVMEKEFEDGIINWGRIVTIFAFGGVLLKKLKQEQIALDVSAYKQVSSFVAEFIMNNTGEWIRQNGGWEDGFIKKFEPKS

Row | Binder | Kd [nM]
1 | B1 | 0.49
2 | B2 | 0.24
3 | B3 | 0.111
4 | B4 | 3.7
5 | B5 | 0.051
6 | B6 | 0.33
7 | B7 | 0.092
8 | B8 | 0.475
9 | B9 | 0.102
10 | B10 | 0.046
11 | B11 | 0.288
12 | B12 | 0.088
13 | B13 | 1.72
14 | B14 | 0.019
15 | B15 | 0.44
16 | B16 | 0.098
17 | B17 | 0.16
18 | B18 | 50
19 | B19 | 0.6
20 | B20 | 7.6
21 | B21 | 0.015
22 | B22 | 0.19
23 | B23 | 0.085
24 | B24 | 0.29
25 | B25 | 0.444

Target: T2, MCL-1 (mouse, residues 152-308) (mouse)
T2 construct: remnant of thrombin cleavage at the N-terminus of MCL-1; MCL-1, mouse, residues 152-308, UniProt P97287; source: E. coli C41 pLysS, purified (Ni2+ agarose, thrombin cleavage, ion exchange, Superdex G75 gel filtration); not shown: His6, N-terminal, cleaved
T2 chain: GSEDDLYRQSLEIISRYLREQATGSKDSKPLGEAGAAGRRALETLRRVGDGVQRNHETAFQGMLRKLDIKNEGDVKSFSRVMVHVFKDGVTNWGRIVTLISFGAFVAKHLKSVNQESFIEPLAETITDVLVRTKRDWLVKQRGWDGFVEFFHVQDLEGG
Test: as above
Details: both partners purified

Row | Binder | Kd [nM]
26 | B14 | 0.33
27 | B15 | 96
28 | B16 | 0.9
29 | B17 | 0.6
30 | B26 | 0.65
31 | B18 | 390
32 | B27 | 0.4
33 | B19 | 1.8
34 | B28 | 0.12
35 | B20 | 35
36 | B21 | 0.38
37 | B22 | 3.8

target: T1, A1 protein (mouse, residues 1-152, P104K C113S, used as wild type) (mouse); test: stopped-flow fluorescence kinetics; association; TAMRA-labelled peptide with folded partner at least 10-fold higher (pseudo-first-order); kon from the gradient of kobs versus partner concentration; 25 °C; 50 mM sodium phosphate, 0.05% (v/v) Tween 20, pH 7.0; details: not given

Row | Binder | kon [M⁻¹ s⁻¹]
38 | B1 | 5.1e+06
39 | B2 | 3.67e+06
40 | B3 | 4.86e+06
41 | B4 | 1.64e+06
42 | B5 | 9.4e+06
43 | B6 | 3.26e+06
44 | B7 | 4.79e+06
45 | B8 | 4.27e+06
46 | B9 | 8.4e+06
47 | B10 | 1.04e+07
48 | B11 | 6.76e+06
49 | B12 | 8.8e+06
50 | B13 | 3.03e+06
51 | B14 | 8.2e+06
52 | B15 | 5.6e+06
53 | B16 | 7.8e+06
54 | B17 | 5.3e+06
55 | B18 | 2.2e+06
56 | B19 | 4.9e+06
57 | B20 | 2.9e+06
58 | B21 | 1e+07
59 | B22 | 8.1e+06
60 | B23 | 5.9e+06
61 | B24 | 8.2e+06
62 | B25 | 4.84e+06

Target: T2, MCL-1 (mouse, residues 152-308)
Test: stopped-flow fluorescence kinetics; association; TAMRA-labelled peptide with folded partner at least 10-fold higher (pseudo-first-order); kon from the gradient of kobs versus partner concentration; 25 °C; 50 mM sodium phosphate, 0.05% (v/v) Tween 20, pH 7.0
Details: both partners purified
Procedure, shortened: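 For kon, stopped-flow fluorescence traces of TAMRA-labelled peptide mixed with mouse MCL-1 (residues 152–308) were fitted to single exponentials to give kobs, and kon was taken as the slope of kobs against partner concentration. Runs used at least 10-fold partner excess at 25 °C in 50 mM sodium phosphate, 0.05% (v/v) Tween 20, pH 7.0, with 555 nm excitation and emission above 570 nm. Data before the 1 ms deadtime were removed, and at least 15 traces were averaged.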

Row | Binder | kon [M⁻¹ s⁻¹]
63 | B14 | 8.9e+06
64 | B15 | 4.5e+06
65 | B16 | 1.09e+07
66 | B17 | 1e+07
67 | B26 | 9.5e+06
68 | B18 | 3.5e+06
69 | B27 | 9e+06
70 | B19 | 8.3e+06
71 | B28 | 9.2e+06
72 | B20 | 4e+06
73 | B21 | 9.9e+06
74 | B22 | 7.8e+06

target: T1, A1 protein (mouse, residues 1-152, P104K C113S, used as wild type) (mouse); test: fluorescence dissociation kinetics with competitor; dissociation; preformed complex of TAMRA-labelled peptide and partner protein mixed with excess unlabeled PUMA peptide as competitor; stopped-flow or Cary Eclipse spectrophotometer; 25 °C; 50 mM sodium phosphate, 0.05% (v/v) Tween 20, pH …; details: not given

Row | Binder | koff [s⁻¹]
75 | B1 | 0.00251
76 | B2 | 0.00088
77 | B3 | 0.00054
78 | B4 | 0.006
79 | B5 | 0.00048
80 | B6 | 0.00108
81 | B7 | 0.00044
82 | B8 | 0.00203
83 | B9 | 0.00086
84 | B10 | 0.00048
85 | B11 | 0.00195
86 | B12 | 0.00077
87 | B13 | 0.0052
88 | B14 | 0.000155
89 | B15 | 0.0025
90 | B16 | 0.00077
91 | B17 | 0.00088
92 | B18 | 0.11
93 | B19 | 0.00303
94 | B20 | 0.022
95 | B21 | 0.000146
96 | B22 | 0.0015
97 | B23 | 0.0005
98 | B24 | 0.00238
99 | B25 | 0.00215

Target: T2, MCL-1 (mouse, residues 152-308)
Test: fluorescence dissociation kinetics with competitor; dissociation; preformed complex of TAMRA-labelled peptide and partner protein mixed with excess unlabeled PUMA peptide as competitor; stopped-flow or Cary Eclipse spectrophotometer; 25 °C; 50 mM sodium phosphate, 0.05% (v/v) Tween 20, pH 7.0
Details: both partners purified
Procedure, shortened: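 The dissociation rate constant (koff) was found by displacing TAMRA-labelled peptide from its preformed complex with mouse MCL-1 (residues 152–308) using a range of unlabelled competitor peptide concentrations. Experiments were run at 25 °C in 50 mM sodium phosphate, 0.05% (v/v) Tween 20, pH 7.0, on a stopped-flow instrument when kobs was above 0.03 s^−1 and on a Cary Eclipse when kobs was below 0.03 s^−1. Each fluorescence trace was fit to a single exponential, and once competitor was in sufficient excess, the kobs values that no longer depended on concentration were averaged to give koff.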

Row | Binder | koff [s⁻¹]
100 | B14 | 0.003
101 | B15 | 0.43
102 | B16 | 0.01
103 | B17 | 0.0063
104 | B26 | 0.0062
105 | B18 | 1.36
106 | B27 | 0.004
107 | B19 | 0.015
108 | B28 | 0.001
109 | B20 | 0.14
110 | B21 | 0.0038
111 | B22 | 0.03
